Results as given in article PMC3600821.

Biological target: Skeletal muscle actin (F-actin) (rabbit) (UniProt P68135)

Substance	actin-activated Mg-ATPase: K (ATPase) (the actin concentration giving V=Vmax/2)	actin-activated Mg-ATPase: Vmax/K (ATPase) (catalytic efficiency)
S619C-IQ (S619C construct extended to include one IQ domain) (from UniProt P08799 1-790) (domain or fragment)	17.3 µM	0.18 s⁻¹ µM⁻¹
Muscle S1 (skeletal muscle myosin II subfragment 1) (domain or fragment)	15.8 µM	1.23 s⁻¹ µM⁻¹
M761-2R (761-aa wild-type Dictyostelium myosin II catalytic domain fused to two α-actinin repeats) (from UniProt P08799 1-761)	59 µM	0.13 s⁻¹ µM⁻¹
